Laboratory results taken from paper PMC5914118, “Exploiting the Concept of Multivalency with ^68Ga- and ^89Zr-Labelled Fusarinine C-Minigastrin Bioconjugates for Targeting CCK2R Expression” (Contrast Media & Molecular Imaging, 2018).
Read-outs that look alike come from different tables or passages of the source. Marks after values point to notes of the source that are not given here.

Tests used:
[1] = format: physicochemical
Experimental: Aliquots (50 μL) of ^68Ga- and ^89Zr-labelled mono-, di-, and trimer (10 μM) were diluted in 450 μL PBS. After adding 500 μL octanol the mixture was vortexed with 1400 rpm (MS 3 basic vortexer, IKA, Staufen, Germany) for 15 min at RT followed by centrifugation for 2 min at 4500 rpm. Subsequently, 100 μL aliquots of the organic and the aqueous layer were collected and logD values were calculated using Excel (n = 3, six replicates) after gamma counter measurement.

[2] = tested on: A431-CCK2R/A431-mock tumour xenografted BALB/c nude mice; conditions: mouse, in vivo
Experimental: All animal experiments were conducted in compliance with the Austrian and Dutch animal protection laws and with approval of the Austrian Ministry of Science (BMWF-66.011/000604-II/3b/2012 and BMWFW-66.011/0049-WF/II/3b/2014). In vivo stability studies were conducted in 5-week-old female BALB/c mice (in-house breed, ZVTA Innsbruck, Dr. Hermann Dietrich). The biodistribution studies were performed using female 8−10-week-old athymic BALB/c nude mice (Charles River Laboratories, Sulzfeld, Germany). Tumour xenografts were induced by subcutaneous injection of 2 × 10^6 A431-CCK2R cells (receptor positive) in the right and the same amount of A431-mock (receptor negative) in the left flank. Tumours were allowed to grow until they had reached a volume of 0.3–0.6 cm^3. To evaluate the biodistribution profile nude mice (n = 4) were intravenously injected with either 1-2 MBq ^68Ga- or 0.3 MBq ^89Zr-labelled mono-, di-, and trimer (0.1–0.2 nmol). The animals were sacrificed by cervical dislocation after 1 h as well as 2 h and 4 h in case of ^68Ga- and ^89Zr-labelled trimer, followed by the collection of organs and tissue. The collected samples were measured in the gamma counter and the results were calculated as percentage of injected dose per gram tissue (% ID/g).

CSCC[C@H](NC(=O)[C@H](Cc1c[nH]c2ccccc12)NC(=O)CNC(=O)[C@H](Cc1ccc(O)cc1)NC(=O)[C@H](C)NC(=O)[C@@H](CCC(=O)O)NC(=O)CCSC1CC(=O)N(CCC(=O)NC2CCCN(O)C(=O)C=C(C)CCOC(=O)C(NC(=O)CCN3C(=O)CC(SCCC(=O)N[C@H](CCC(=O)O)C(=O)N[C@@H](C)C(=O)N[C@@H](Cc4ccc(O)cc4)C(=O)NCC(=O)N[C@@H](Cc4c[nH]c5ccccc45)C(=O)N[C@@H](CCSC)C(=O)N[C@@H](CC(=O)O)C(=O)N[C@@H](Cc4ccccc4)C(N)=O)C3=O)CCCN(O)C(=O)C=C(C)CCOC(=O)C(NC(C)=O)CCCN(O)C(=O)C=C(C)CCOC2=O)C1=O)C(=O)N[C@@H](CC(=O)O)C(=O)N[C@@H](Cc1ccccc1)C(N)=O (some centres unmarked) [^68Ga-labelled Dimer, metal not drawn]
Distribution coefficient logD (pH 7.4) [1]: −2.38 ± 0.04 | Tumour-to-organ ratio (T/O): A431-mock [2]: 17.9 ± 6.1^c | Tumour-to-organ ratio (T/O): Blood [2]: 16.0 ± 3.1^cd | Tumour-to-organ ratio (T/O): Bone [2]: 11.6 ± 1.9^c | Tumour-to-organ ratio (T/O): Heart [2]: 27.2 ± 4.8^cd | Tumour-to-organ ratio (T/O): Intestine [2]: 19.9 ± 4.9^acd | Tumour-to-organ ratio (T/O): Kidneys [2]: 0.30 ± 0.06^cd | Tumour-to-organ ratio (T/O): Liver [2]: 11.1 ± 2.4^c | Tumour-to-organ ratio (T/O): Lung [2]: 14.4 ± 2.3^cd | Tumour-to-organ ratio (T/O): Muscle [2]: 31.4 ± 13.2^cd | Tumour-to-organ ratio (T/O): Pancreas [2]: 17.9 ± 3.2^cd | Tumour-to-organ ratio (T/O): Spleen [2]: 23.1 ± 4.2^cd | Tumour-to-organ ratio (T/O): Stomach [2]: 4.0 ± 0.5^c | Biodistribution: A431-CCK2R tumour (receptor positive) ([2]; 1 h): 8.36 ± 0.90^ac % ID/g | Biodistribution: A431-mock tumour (receptor negative) ([2]; 1 h): 0.36 ± 0.22^cd % ID/g | Biodistribution: Blood ([2]; 1 h): 0.53 ± 0.06^cd % ID/g | Biodistribution: Bone ([2]; 1 h): 0.60 ± 0.21^cd % ID/g | Biodistribution: Heart ([2]; 1 h): 0.31 ± 0.04^cd % ID/g | Biodistribution: Intestine ([2]; 1 h): 0.44 ± 0.06^c % ID/g | Biodistribution: Kidneys ([2]; 1 h): 28.9 ± 3.4^cd % ID/g | Biodistribution: Liver ([2]; 1 h): 0.78 ± 0.09^c % ID/g | Biodistribution: Lung ([2]; 1 h): 0.59 ± 0.08^cd % ID/g | Biodistribution: Muscle ([2]; 1 h): 0.30 ± 0.08^cd % ID/g | Biodistribution: Pancreas ([2]; 1 h): 0.48 ± 0.06^cd % ID/g | Biodistribution: Spleen ([2]; 1 h): 0.37 ± 0.04^cd % ID/g | Biodistribution: Stomach ([2]; 1 h): 2.13 ± 0.23^c % ID/g

CSCC[C@H](NC(=O)[C@H](Cc1c[nH]c2ccccc12)NC(=O)CNC(=O)[C@H](Cc1ccc(O)cc1)NC(=O)[C@H](C)NC(=O)[C@@H](CCC(=O)O)NC(=O)CCSC1CC(=O)N(CCC(=O)NC2CCCN(O)C(=O)C=C(C)CCOC(=O)C(NC(C)=O)CCCN(O)C(=O)C=C(C)CCOC(=O)C(NC(C)=O)CCCN(O)C(=O)C=C(C)CCOC2=O)C1=O)C(=O)N[C@@H](CC(=O)O)C(=O)N[C@@H](Cc1ccccc1)C(N)=O (some centres unmarked) [^68Ga-labelled Monomer, metal not drawn]
Distribution coefficient logD (pH 7.4) [1]: −2.99 ± 0.02 | Tumour-to-organ ratio (T/O): A431-mock [2]: 16.3 ± 3.3^bd | Tumour-to-organ ratio (T/O): Blood [2]: 14.4 ± 3.6^b | Tumour-to-organ ratio (T/O): Bone [2]: 17.1 ± 7.4^bd | Tumour-to-organ ratio (T/O): Heart [2]: 29.5 ± 9.3^bd | Tumour-to-organ ratio (T/O): Intestine [2]: 9.4 ± 3.7^b | Tumour-to-organ ratio (T/O): Kidneys [2]: 0.86 ± 0.13^abd | Tumour-to-organ ratio (T/O): Liver [2]: 21.1 ± 3.1^abd | Tumour-to-organ ratio (T/O): Lung [2]: 11.7 ± 2.1^bd | Tumour-to-organ ratio (T/O): Muscle [2]: 20.4 ± 1.8^b | Tumour-to-organ ratio (T/O): Pancreas [2]: 16.7 ± 3.0^bd | Tumour-to-organ ratio (T/O): Spleen [2]: 27.3 ± 6.3^b | Tumour-to-organ ratio (T/O): Stomach [2]: 4.6 ± 1.1^b | Biodistribution: A431-CCK2R tumour (receptor positive) ([2]; 1 h): 4.86 ± 1.00^d % ID/g | Biodistribution: A431-mock tumour (receptor negative) ([2]; 1 h): 0.30 ± 0.04^b % ID/g | Biodistribution: Blood ([2]; 1 h): 0.35 ± 0.06^ab % ID/g | Biodistribution: Bone ([2]; 1 h): 0.31 ± 0.08^b % ID/g | Biodistribution: Heart ([2]; 1 h): 0.17 ± 0.02^ab % ID/g | Biodistribution: Intestine ([2]; 1 h): 0.58 ± 0.17^b % ID/g | Biodistribution: Kidneys ([2]; 1 h): 5.57 ± 0.57^abd % ID/g | Biodistribution: Liver ([2]; 1 h): 0.23 ± 0.02^ab % ID/g | Biodistribution: Lung ([2]; 1 h): 0.42 ± 0.06^ab % ID/g | Biodistribution: Muscle ([2]; 1 h): 0.20 ± 0.05^b % ID/g | Biodistribution: Pancreas ([2]; 1 h): 0.29 ± 0.02^ab % ID/g | Biodistribution: Spleen ([2]; 1 h): 0.18 ± 0.04^ab % ID/g | Biodistribution: Stomach ([2]; 1 h): 1.07 ± 0.14^ab % ID/g

CSCC[C@H](NC(=O)[C@H](Cc1c[nH]c2ccccc12)NC(=O)CNC(=O)[C@H](Cc1ccc(O)cc1)NC(=O)[C@H](C)NC(=O)[C@@H](CCC(=O)O)NC(=O)CCSC1CC(=O)N(CCC(=O)NC2CCCN(O)C(=O)C=C(C)CCOC(=O)C(NC(=O)CCN3C(=O)CC(SCCC(=O)N[C@H](CCC(=O)O)C(=O)N[C@@H](C)C(=O)N[C@@H](Cc4ccc(O)cc4)C(=O)NCC(=O)N[C@@H](Cc4c[nH]c5ccccc45)C(=O)N[C@@H](CCSC)C(=O)N[C@@H](CC(=O)O)C(=O)N[C@@H](Cc4ccccc4)C(N)=O)C3=O)CCCN(O)C(=O)C=C(C)CCOC(=O)C(NC(=O)CCN3C(=O)CC(SCCC(=O)N[C@H](CCC(=O)O)C(=O)N[C@@H](C)C(=O)N[C@@H](Cc4ccc(O)cc4)C(=O)NCC(=O)N[C@@H](Cc4c[nH]c5ccccc45)C(=O)N[C@@H](CCSC)C(=O)N[C@@H](CC(=O)O)C(=O)N[C@@H](Cc4ccccc4)C(N)=O)C3=O)CCCN(O)C(=O)C=C(C)CCOC2=O)C1=O)C(=O)N[C@@H](CC(=O)O)C(=O)N[C@@H](Cc1ccccc1)C(N)=O (some centres unmarked) [^68Ga-labelled Trimer, metal not drawn]
Distribution coefficient logD (pH 7.4) [1]: −2.20 ± 0.07 | Biodistribution: A431-CCK2R tumour (receptor positive) ([2]; 1 h): 6.07 ± 1.56 % ID/g | Biodistribution: A431-mock tumour (receptor negative) ([2]; 1 h): 2.17 ± 0.70^e % ID/g | Biodistribution: Blood ([2]; 1 h): 3.70 ± 1.27 % ID/g | Biodistribution: Bone ([2]; 1 h): 2.03 ± 0.88 % ID/g | Biodistribution: Heart ([2]; 1 h): 1.60 ± 0.28^e % ID/g | Biodistribution: Intestine ([2]; 1 h): 1.15 ± 0.28^e % ID/g | Biodistribution: Kidneys ([2]; 1 h): 49.7 ± 10.1 % ID/g | Biodistribution: Liver ([2]; 1 h): 3.71 ± 0.75 % ID/g | Biodistribution: Lung ([2]; 1 h): 4.47 ± 1.50 % ID/g | Biodistribution: Muscle ([2]; 1 h): 0.75 ± 0.15 % ID/g | Biodistribution: Pancreas ([2]; 1 h): 1.37 ± 0.26^e % ID/g | Biodistribution: Spleen ([2]; 1 h): 2.15 ± 0.32^e % ID/g | Biodistribution: Stomach ([2]; 1 h): 3.17 ± 0.54 % ID/g | Biodistribution: A431-CCK2R tumour (receptor positive) ([2]; 2 h): 8.73 ± 2.65^e % ID/g | Biodistribution: A431-mock tumour (receptor negative) ([2]; 2 h): 3.18 ± 0.51 % ID/g | Biodistribution: Blood ([2]; 2 h): 2.53 ± 0.67 % ID/g | Biodistribution: Bone ([2]; 2 h): 2.52 ± 0.79 % ID/g | Biodistribution: Heart ([2]; 2 h): 2.18 ± 0.31 % ID/g | Biodistribution: Intestine ([2]; 2 h): 1.86 ± 0.33 % ID/g | Biodistribution: Kidneys ([2]; 2 h): 59.6 ± 4.3^f % ID/g | Biodistribution: Liver ([2]; 2 h): 4.09 ± 0.85 % ID/g | Biodistribution: Lung ([2]; 2 h): 5.78 ± 0.92 % ID/g | Biodistribution: Muscle ([2]; 2 h): 0.65 ± 0.14 % ID/g | Biodistribution: Pancreas ([2]; 2 h): 1.80 ± 0.31 % ID/g | Biodistribution: Spleen ([2]; 2 h): 2.89 ± 0.53 % ID/g | Biodistribution: Stomach ([2]; 2 h): 3.86 ± 1.36^f % ID/g | Biodistribution: A431-CCK2R tumour (receptor positive) ([2]; 4 h): 14.44 ± 3.40^f % ID/g | Biodistribution: A431-mock tumour (receptor negative) ([2]; 4 h): 2.16 ± 0.54 % ID/g | Biodistribution: Blood ([2]; 4 h): 1.76 ± 0.43 % ID/g | Biodistribution: Bone ([2]; 4 h): 2.26 ± 0.41 % ID/g | Biodistribution: Heart ([2]; 4 h): 1.51 ± 0.33^f % ID/g | Biodistribution: Intestine ([2]; 4 h): 2.48 ± 0.59 % ID/g | Biodistribution: Kidneys ([2]; 4 h): 172.1 ± 14.8 % ID/g | Biodistribution: Liver ([2]; 4 h): 6.01 ± 2.54 % ID/g | Biodistribution: Lung ([2]; 4 h): 3.75 ± 0.84^f % ID/g | Biodistribution: Muscle ([2]; 4 h): 1.01 ± 0.37 % ID/g | Biodistribution: Pancreas ([2]; 4 h): 3.10 ± 1.13 % ID/g | Biodistribution: Spleen ([2]; 4 h): 2.77 ± 0.78 % ID/g | Biodistribution: Stomach ([2]; 4 h): 13.6 ± 4.9 % ID/g
